Results on two molecules are retold here after patent publication US20150291692A1 (INNATE PHARMA, published 2015).

Assay [1] deals with T1, KIR3DL2 mutant 1 (R13W, A25T, Q27R) (human, UniProt P43630 22-455).
T1 construct: Expressed on transfected HEK-293T cells; also called Number 1
The assay can be described thus: flow cytometry on HEK-293T cells transfected with the mutant. For orientation: A flow cytometer gives signals particle by particle.

Assay [2] addresses T2, KIR3DL2 mutant 2 (I60N, G62S) (human, UniProt P43630 22-455).
T2 construct: The running text prints 160N for I60N; Expressed on transfected HEK-293T cells; also called Number 2
The description is as above.

In assay [3] the target is T3, KIR3DL2 mutant 2A2 (Q56S, E57A) (human, UniProt P43630 22-455).
T3 construct: Expressed on transfected HEK-293T cells; also called Number 34 (1 + 2 A2)
Described as above.

For assay [4], the target named is T4, KIR3DL2 mutant MD0/HLA1 (F9S, S11A) (human, UniProt P43630 22-455).
T4 construct: Expressed on transfected HEK-293T cells; also called Number 31 (D0-HLA1)
The assay is described as above.

For assay [5], the target named is T5, KIR3DL2 recombinant protein (R&D Systems) (human, UniProt P43630 28-340).
T5 construct: Bought protein; also called rec KIR3DL2; recombinant KIR3DL2-Fc fusion protein; not shown: Fc part of the bought fusion protein; not described
The assay can be described thus: SCK kinetic method.

Assay [6] concerns the target T6, KIR2DS1 on transfected BWZ cells (UniProt Q14954 22-304, limits assumed).
T6 construct: whole, on cells; also called BWZ-KIR2DS1
The assay can be described thus: flow cytometry on transfected BWZ cells.

The target of assay [7] is T7, KIR2DS2 on transfected BWZ cells (UniProt P43631 22-304, limits assumed).
T7 construct: whole, on cells
T7 sequence (P43631 22-304 limits assumed): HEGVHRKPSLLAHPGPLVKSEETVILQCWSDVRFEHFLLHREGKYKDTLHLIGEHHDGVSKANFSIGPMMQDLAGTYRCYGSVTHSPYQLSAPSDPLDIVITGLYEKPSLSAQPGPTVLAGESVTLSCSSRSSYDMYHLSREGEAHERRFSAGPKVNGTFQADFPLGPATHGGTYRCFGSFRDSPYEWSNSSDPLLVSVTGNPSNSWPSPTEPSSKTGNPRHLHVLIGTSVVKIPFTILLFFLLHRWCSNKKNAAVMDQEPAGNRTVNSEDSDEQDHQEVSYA
The assay can be described thus: flow cytometry on transfected BWZ cells.

The target in assay [8] is T8, KIR2DL3 on transfected BWZ cells (UniProt P43628 22-341, limits assumed).
T8 construct: whole, on cells
T8 sequence (P43628 22-341 limits assumed): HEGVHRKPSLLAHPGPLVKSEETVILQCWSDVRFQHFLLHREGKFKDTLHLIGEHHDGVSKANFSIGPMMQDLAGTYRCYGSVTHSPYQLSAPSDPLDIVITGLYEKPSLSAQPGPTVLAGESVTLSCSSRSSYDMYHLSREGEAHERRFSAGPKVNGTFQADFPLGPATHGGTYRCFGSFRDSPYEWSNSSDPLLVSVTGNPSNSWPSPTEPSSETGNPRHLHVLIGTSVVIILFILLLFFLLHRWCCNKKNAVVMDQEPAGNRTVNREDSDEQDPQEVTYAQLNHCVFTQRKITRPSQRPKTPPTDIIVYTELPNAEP
In words: flow cytometry on transfected BWZ cells.

The target in assay [9] is T9, KIR2DL1 on transfected BWZ cells (UniProt P43626 22-348, limits assumed).
T9 construct: whole, on cells
T9 sequence (P43626 22-348 limits assumed): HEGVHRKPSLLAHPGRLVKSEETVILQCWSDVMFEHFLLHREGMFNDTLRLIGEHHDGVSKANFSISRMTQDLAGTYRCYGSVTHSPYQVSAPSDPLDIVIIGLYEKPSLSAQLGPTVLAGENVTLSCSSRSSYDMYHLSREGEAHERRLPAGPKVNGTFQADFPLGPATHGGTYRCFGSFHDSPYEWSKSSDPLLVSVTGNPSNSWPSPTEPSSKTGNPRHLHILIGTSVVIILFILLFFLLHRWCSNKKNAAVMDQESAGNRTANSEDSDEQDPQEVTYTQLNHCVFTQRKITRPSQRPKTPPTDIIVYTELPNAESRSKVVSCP
In words: flow cytometry on transfected BWZ cells.

Assay [10] deals with T10, KIR2DS4 on transfected BWZ cells (UniProt P43632 22-304, limits assumed).
T10 construct: whole, on cells
T10 sequence (P43632 22-304 limits assumed): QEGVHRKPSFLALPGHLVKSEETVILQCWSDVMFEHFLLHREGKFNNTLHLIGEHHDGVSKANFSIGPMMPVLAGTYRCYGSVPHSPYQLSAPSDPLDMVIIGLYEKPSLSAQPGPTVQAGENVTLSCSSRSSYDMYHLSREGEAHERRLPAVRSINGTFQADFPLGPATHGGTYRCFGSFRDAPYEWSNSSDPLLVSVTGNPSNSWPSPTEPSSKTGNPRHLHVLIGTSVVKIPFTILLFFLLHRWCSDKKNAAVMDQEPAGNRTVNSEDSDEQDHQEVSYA
In words: flow cytometry on transfected BWZ cells.

The target of assay [11] is T11, KIR3DL1 expressed on cells (human, UniProt P43629 22-444).
T11 construct: also called HEK-293T/KIR3DL1
T11 sequence (P43629 22-444 limits assumed): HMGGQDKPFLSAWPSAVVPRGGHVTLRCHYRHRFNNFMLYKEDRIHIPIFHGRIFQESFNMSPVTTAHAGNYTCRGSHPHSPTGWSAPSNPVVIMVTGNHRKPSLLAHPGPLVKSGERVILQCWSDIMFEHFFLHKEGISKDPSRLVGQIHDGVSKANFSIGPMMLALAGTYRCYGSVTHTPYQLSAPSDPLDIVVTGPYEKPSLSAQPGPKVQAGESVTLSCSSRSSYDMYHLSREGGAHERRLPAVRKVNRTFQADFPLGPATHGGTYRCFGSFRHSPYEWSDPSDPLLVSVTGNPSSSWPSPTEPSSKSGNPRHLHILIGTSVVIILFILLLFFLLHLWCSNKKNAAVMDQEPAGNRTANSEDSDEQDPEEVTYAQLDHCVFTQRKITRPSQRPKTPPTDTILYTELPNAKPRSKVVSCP
In words: flow cytometry on HEK KIR3DL1 cells (row HEK-KIR3DL1).

In assay [12] the target is T5, KIR3DL2 recombinant protein (R&D …). The assay can be described thus: SPR (Biacore T100), antibody injected over immobilised recombinant KIR3DL2, bivalent affinity, pH 7.2.
The target in assay [13] is T12, KIR3DL2 mutant M7 (L113V;T118R) (human, UniProt P43630 22-455).
T12 construct: Expressed on transfected HEK-293T cells; also called Number 7
In words: flow cytometry on HEK-293T cells transfected with the mutant; + no significant loss of binding, ± decrease.

Assay [14] has as its target T13, KIR3DL2 mutant M9 (L164M;P166L;V167A) (human, UniProt P43630 22-455).
T13 construct: Expressed on transfected HEK-293T cells; also called Number 9
The assay is described as above.

Assay [15] addresses T14, KIR3DL2 mutant M10 (R136K;E141K) (human, UniProt P43630 22-455).
T14 construct: Expressed on transfected HEK-293T cells; also called Number 10
Described as above.

Assay [16] has as its target T15, KIR3DL2 mutant M11 (P179T;S181T) (human, UniProt P43630 22-455).
T15 construct: Expressed on transfected HEK-293T cells; also called Number 11; mutant 11
Described as above.

The target in assay [17] is T16, KIR3DL2 mutant M11A1 (V178A;H180S) (human, UniProt P43630 22-455).
T16 construct: Expressed on transfected HEK-293T cells; also called Number 24 (11A1); mutant 11A1
The assay is described as above.

The target in assay [18] is T17, KIR3DL2 mutant M11A3 (N99S;H100S;Q184A) (human, UniProt P43630 22-455).
T17 construct: Expressed on transfected HEK-293T cells; also called Number 26 (11A3)
The assay is described as above.

The target in assay [19] is T18, KIR3DL2 mutant M11A5 (V147A;Q149S) (human, UniProt P43630 22-455).
T18 construct: Expressed on transfected HEK-293T cells; also called Number 28 (11A5)
The description is as above.

The target of assay [20] is T19, KIR3DL2 mutant M8 + 11 (V127I;P179T;S181T) (human, UniProt P43630 22-455).
T19 construct: Expressed on transfected HEK-293T cells; also called Number 23 (8 + 11)
The description is as above.

Assay [21] addresses T20, KIR3DL2 mutant M11A4 (E130S;H131S;R145S) (human, UniProt P43630 22-455).
T20 construct: Expressed on transfected HEK-293T cells; also called Number 27 (11A4)
The assay can be described thus: flow cytometry on HEK-293T cells transfected with the mutant; - means substantially complete loss of binding.

The target in assay [22] is T21, KIR3DL2 mutant M11A6 (I150A;M128A) (human, UniProt P43630 22-455).
T21 construct: Expressed on transfected HEK-293T cells; also called Number 29 (11A6)
The assay is described as above.

The target in assay [23] is T22, KIR3DL2 at the surface of HUT78 Sezary Syndrome cell line (human, UniProt P43630 22-455).
T22 construct: whole, on cells; Two alleles are expressed
The assay can be described thus: flow cytometry competition on HUT78 cells; naked antibody titrated against 15C11-PE (5 µg/ml).

Assay [24] has as its target T23, NK cells, including normal KIR3DL2+ NK cells (Homo sapiens, UniProt P43630).
T23 construct: full-length receptor on the cell surface; also called gate NK GaM PE+; KIR3DL2 on CD4-negative NK cells in the blood of the Sezary Syndrome patient
The assay can be described thus: flow cytometry of whole blood of a Sezary Syndrome patient, antibody + GaM-PE against CD4; lower gate (CD4-negative NK cells).

Assay [25] deals with T24, KIR3DL2 on fresh Sezary Syndrome cells of patients (human, UniProt P43630 22-455).
T24 construct: whole, on cells; also called SS cells
In words: flow cytometry of whole blood of a Sezary Syndrome patient, antibody + GaM-PE against CD4; upper gate (CD4+ KIR3DL2+ leukemic Sezary cells).

As a reminder, the koff is the rate constant with which the complex falls apart.

T6 sequence (Q14954 22-304 limits assumed): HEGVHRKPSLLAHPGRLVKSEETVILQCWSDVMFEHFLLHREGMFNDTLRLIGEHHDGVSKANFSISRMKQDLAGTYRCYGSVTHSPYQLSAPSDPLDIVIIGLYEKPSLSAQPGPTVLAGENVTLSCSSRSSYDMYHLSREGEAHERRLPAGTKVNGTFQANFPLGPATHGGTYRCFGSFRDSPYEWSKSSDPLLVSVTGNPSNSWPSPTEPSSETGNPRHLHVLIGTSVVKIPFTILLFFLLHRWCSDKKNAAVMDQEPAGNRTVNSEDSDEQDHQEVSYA

B1: antibody 13H1 (antibody, V domains shown)
VH: EVQLQQSGPELVKPGASMKISCKASHYSFIGYTMNWVKQRHGKNLEWIGLINPYNGDTTYNQKFKGKASLTVDKSSSTAYMEILSLTSEDSAVYYCARENWGYPYAMDYWGQGTSVTVS
VL: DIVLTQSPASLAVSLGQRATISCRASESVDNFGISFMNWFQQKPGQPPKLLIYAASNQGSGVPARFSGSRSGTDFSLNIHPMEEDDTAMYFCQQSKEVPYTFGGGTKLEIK
Turning to B1, the binding result in assay [1] is “no binding”; in assay [2] it was “no binding”; in [3], “binds”; in assay [4], “binds”.

B2: antibody 15C11 (antibody, mouse IgG2a, V domains shown)
VH: EVKLEESGGGLVQPGGSMKLSCAASGFTFSDAWMDWVRQSPEKGLEWVAEIRSKANNHATYYAESVKGRFTISRDDSKSSVYLRMNSLRAEDTGIYYCTGGYYPVYWGQGTLVTVSA
VL: DIQMTQSPSSLSASLGGKVTITCKASQDINKNIAWYQHKPGKGPRLLIHYTSTLQPGFPSRFSGSGSGRDYSFSISNLEPEDLATYYCLQYDNLLTFGGGTKLEIK
notes: also called M-K32-15C11; 15C11-PE (PE-labelled form)
On to B2, for which the Kd was 0.37 nM in assay [5] and 0.78 nM in assay [12]. Moreover, in assay [5], the koff was found to be 0.00011 s⁻¹. Moreover, the binding result in assay [6] is “no binding (tested: 10 µg/ml)”; in assay [7] it was “no binding (tested: 10 µg/ml)”; in assay [8] it was “no binding (tested: 10 µg/ml)”; in assay [9], “no binding (tested: 10 µg/ml)”; in assay [10], “no binding (tested: 10 µg/ml)”; in [11] it was “no binding”. Further, the binding result in assay [13], in [14], in assay [15], in assay [16], in assay [17] and in [18] was “binds” in each case. Further, the binding result in [19] is “binds”; in [20], “binds”; in assay [21], “no binding”; in assay [22] it was “no binding”. In addition, the “IC50 (read off the curve)” value in [23] was around 0.4 µg/mL. Besides, the “% of cells in gate NK GaM PE+” value in assay [24] is 12.7%. Moreover, in [25], the “% of cells in gate CD4 GaM PE+” value was 7.6%.
